The values that follow come from publication PMC3814058 (Bioscience Reports, 2013).

No end group written: not given here.

As usually defined, the stoichiometry N is the number of molecules, sites or subunits per partner or assembly.

The data set concerns the molecule itself. The data set can be described thus: non-reducing SDS/PAGE; overnight dialysis at 4°C against non-reducing (DTT-free) HK buffer, non-reducing sample buffer, 65°C 5 min, Coomassie stain; disulphide-linked dimer.

B1: GFP–STIM1K+LC (GFP–STIM1K with a leucine and cysteine insertion after residue 666), oxidized dimer (domain or fragment, human, UniProt Q13586-1 662-685, looked up)
chain: GEETDLCSSPGRKKFPLKIFKKPLKK
modifications: not fully specified; inserted cysteine oxidized (84% dimerization)
notes: STIM1, human, residues 662–685 with Leu and Cys inserted after Asp666; The methods describe only the plasmid of the +LC–P675A–P682A form (pMS781); also called GFP–STIM1K dimer; oxidized GFP–STIM1K+LC; source: E. coli BL21 (DE3), purified, dialysed overnight against DTT-free HK buffer; not shown: GFP, N-terminal, kept
Take B1: the “stoichiometry N” value worked out at 2.

B2: GFP–STIM1K+LC–P675A–P682A, oxidized dimer (domain or fragment, human, UniProt Q13586-1 662-685, looked up)
chain: {GFP}-GEETDLCSSPGRKKFALKIFKKALKK
modifications: also: disulfide-linked dimer via inserted cysteine
notes: STIM1, human, residues 662–685 with Leu and Cys inserted after Asp666, P675A and P682A; also called pMS781; GFP-STIM1K dimer with both prolines mutated; source: E. coli BL21 (DE3), purified, dialysed overnight against DTT-free HK buffer; not shown: GFP, N-terminal, kept
For the protein B2, the “stoichiometry N” value amounted to 2.
